Biological target: T1, Drs2p (S. cerevisiae, UniProt P39524 1-1355)
T1 construct: Drs2p, Saccharomyces cerevisiae, intact protein of 1355 residues; Co-purified with endogenous Cdc50p; Residues 196-212 of the N-terminal peptide and Glu1231-Ala1309 of the C-terminal peptide are ordered in the apo map; The last 46 residues are disordered; also called Drs2p ATPase; P4 ATPase subunit of the Drs2p-Cdc50p lipid flippase; not shown: triple FLAG, C-terminal, kept
T1 sequence (looked up): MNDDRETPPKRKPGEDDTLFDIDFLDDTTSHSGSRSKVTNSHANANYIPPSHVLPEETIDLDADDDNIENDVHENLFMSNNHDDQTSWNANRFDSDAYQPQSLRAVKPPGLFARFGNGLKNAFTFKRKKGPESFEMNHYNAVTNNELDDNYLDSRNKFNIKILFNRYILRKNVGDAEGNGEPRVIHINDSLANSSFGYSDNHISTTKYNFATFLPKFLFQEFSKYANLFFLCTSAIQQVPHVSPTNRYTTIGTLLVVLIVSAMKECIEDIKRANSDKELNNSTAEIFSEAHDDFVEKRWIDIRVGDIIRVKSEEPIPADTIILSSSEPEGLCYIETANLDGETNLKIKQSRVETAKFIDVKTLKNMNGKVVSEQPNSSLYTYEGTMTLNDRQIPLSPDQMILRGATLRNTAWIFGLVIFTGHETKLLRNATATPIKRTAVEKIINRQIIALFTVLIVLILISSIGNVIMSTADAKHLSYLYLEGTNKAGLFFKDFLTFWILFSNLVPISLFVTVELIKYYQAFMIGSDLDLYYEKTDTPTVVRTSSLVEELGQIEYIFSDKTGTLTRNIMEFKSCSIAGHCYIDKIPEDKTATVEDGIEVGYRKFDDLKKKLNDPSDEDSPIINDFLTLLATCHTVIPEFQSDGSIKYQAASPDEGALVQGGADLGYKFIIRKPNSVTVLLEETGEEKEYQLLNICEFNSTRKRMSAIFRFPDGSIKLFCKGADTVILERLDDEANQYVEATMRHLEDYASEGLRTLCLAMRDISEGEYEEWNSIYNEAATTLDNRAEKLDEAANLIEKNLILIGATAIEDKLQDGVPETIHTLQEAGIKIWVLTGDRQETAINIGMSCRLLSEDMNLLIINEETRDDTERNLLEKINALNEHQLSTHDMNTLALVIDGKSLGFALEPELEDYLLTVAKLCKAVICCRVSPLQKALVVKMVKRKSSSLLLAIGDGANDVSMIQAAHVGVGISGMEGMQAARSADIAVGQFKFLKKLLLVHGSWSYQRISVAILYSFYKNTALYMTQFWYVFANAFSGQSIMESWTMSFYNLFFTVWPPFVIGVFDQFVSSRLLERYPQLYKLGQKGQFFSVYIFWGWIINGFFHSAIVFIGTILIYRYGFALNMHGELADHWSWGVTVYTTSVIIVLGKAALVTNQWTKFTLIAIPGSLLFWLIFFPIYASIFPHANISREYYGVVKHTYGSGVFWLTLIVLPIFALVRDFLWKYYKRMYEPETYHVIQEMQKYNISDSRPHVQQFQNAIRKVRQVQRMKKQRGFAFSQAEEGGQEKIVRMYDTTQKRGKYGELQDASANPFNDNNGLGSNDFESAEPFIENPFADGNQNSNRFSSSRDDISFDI
Experiment: cryo-EM structure; endogenous Drs2p-Cdc50p complex as purified, apo autoinhibited form, 3 mg/mL; 0.01% LMNG, 0.001% CHS, 150 mM NaCl, 20 mM Tris-HCl pH 7.4, 1 mM MgCl2, 1 mM MnCl2; 2.8 Å map
Conditions: both partners purified

binding result: binds
B1: Cdc50p (natural protein, S. cerevisiae, UniProt P25656 1-391, looked up)
chain: MVSLFKRGKAPPLTKEGPTSKKPPNTAFRQQRLKAWQPILSPQSVLPLLIFVACIFTPIGIGLIVSATKVQDLTIDYSHCDTKASTTAFEDIPKKYIKYHFKSKVENKPQWRLTENENGEQSCELQFEIPNDIKKSIFIYYKITNFYQNHRRYVQSFDTKQILGEPIKKDDLDTSCSPIRSREDKIIYPCGLIANSMFNDTFSQVLSGIDDTEDYNLTNKHISWSIDRHRFKTTKYNASDIVPPPNWMKKYPDGYTDENLPDIHTWEEFQVWMRTAAFPKFYKLTLKNESASLPKGKYQMNIELNYPISLFGGTKSFVLTTNGAIGGRNMSLGVLYLIVAGLCALFGIIFLVKLIFQPRAMGDHTYLNFDDEENEDYEDVHAENTTLREIL
modifications: N-glycans at Asn-199, Asn-216 and Asn-288; disulfide bonds Cys-80 with Cys-123 and Cys-176 with Cys-190
notes: Cdc50p, Saccharomyces cerevisiae, endogenous untagged subunit of the Drs2p-Cdc50p complex; The first half of the 40-residue N-terminal peptide and the 31-residue C-terminal peptide are disordered in the map
